Patent US20200339694A1 (published 2020)
Like-named read-outs stand apart in the source and are kept apart here.

T1: human IL6R (R and D systems cat #227-SR/CF) (human, UniProt P08887 20-358)
T1 chain: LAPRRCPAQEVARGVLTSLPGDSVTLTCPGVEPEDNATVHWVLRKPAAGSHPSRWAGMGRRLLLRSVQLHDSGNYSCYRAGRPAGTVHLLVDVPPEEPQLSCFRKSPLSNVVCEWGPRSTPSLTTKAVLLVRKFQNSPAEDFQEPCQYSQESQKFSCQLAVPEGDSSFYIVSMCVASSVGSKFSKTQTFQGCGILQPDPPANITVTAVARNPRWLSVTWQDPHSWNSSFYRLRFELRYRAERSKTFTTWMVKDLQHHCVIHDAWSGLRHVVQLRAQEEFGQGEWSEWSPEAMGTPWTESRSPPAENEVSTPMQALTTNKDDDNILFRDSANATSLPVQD


Key:
[1] = target: T1, human IL6R (R and D systems cat …); assay: ELISA; apparent, printed beside curve
[2] = target: T1, human IL6R (R and D systems cat …); assay: ELISA; apparent, printed beside curve

Row | Kd [1] | Kd [2] | Binder
1 | 2.2 nM | – | Av1 antibody (antibody, V domains shown) VH: QVQLQESGPGLVRPSQTLSLTCTVSGYSITSDHAWSWVRQPPGRGLEWIGYISYSGITTYNPSLKSRVTISRDNSKNTLYLQMNSLRAEDTAVYYCARSLARTTAMDYWGQGSLVTVSS VL: DIQMTQSPSSLSASVGDRVTITCRASQDISSYLNWYQQKPGKAPKLLIYYTSRLHSGVPSRFSGSGSGTDFTFTISSLQPEDIATYYCQQGNTLPYTFGQGTKVEIKR
2 | – | 19.2 nM | AV1-based activatable anti-IL6R antibody with Generation 1 mask Peptide 1 and substrate MMP/BV728 (antibody, V domains shown) VH: QVQLQESGPGLVRPSQTLSLTCTVSGYSITSDHAWSWVRQPPGRGLEWIGYISYSGITTYNPSLKSRVTISRDNSKNTLYLQMNSLRAEDTAVYYCARSLARTTAMDYWGQGSLVTVSS VL: YRSCNWNYVSIFLDCDIQMTQSPSSLSASVGDRVTITCRASQDISSYLNWYQQKPGKAPKLLIYYTSRLHSGVPSRFSGSGSGTDFTFTISSLQPEDIATYYCQQGNTLPYTFGQGTKVEIKR
